From paper PMC10786891, “Massively parallel profiling of RNA-targeting CRISPR-Cas13d”

T1: EsCas13d, nuclease-dead (Eubacterium siraeum, UniProt B0MS50, R295A;H300A;R849A;H854A)
T1 sequence: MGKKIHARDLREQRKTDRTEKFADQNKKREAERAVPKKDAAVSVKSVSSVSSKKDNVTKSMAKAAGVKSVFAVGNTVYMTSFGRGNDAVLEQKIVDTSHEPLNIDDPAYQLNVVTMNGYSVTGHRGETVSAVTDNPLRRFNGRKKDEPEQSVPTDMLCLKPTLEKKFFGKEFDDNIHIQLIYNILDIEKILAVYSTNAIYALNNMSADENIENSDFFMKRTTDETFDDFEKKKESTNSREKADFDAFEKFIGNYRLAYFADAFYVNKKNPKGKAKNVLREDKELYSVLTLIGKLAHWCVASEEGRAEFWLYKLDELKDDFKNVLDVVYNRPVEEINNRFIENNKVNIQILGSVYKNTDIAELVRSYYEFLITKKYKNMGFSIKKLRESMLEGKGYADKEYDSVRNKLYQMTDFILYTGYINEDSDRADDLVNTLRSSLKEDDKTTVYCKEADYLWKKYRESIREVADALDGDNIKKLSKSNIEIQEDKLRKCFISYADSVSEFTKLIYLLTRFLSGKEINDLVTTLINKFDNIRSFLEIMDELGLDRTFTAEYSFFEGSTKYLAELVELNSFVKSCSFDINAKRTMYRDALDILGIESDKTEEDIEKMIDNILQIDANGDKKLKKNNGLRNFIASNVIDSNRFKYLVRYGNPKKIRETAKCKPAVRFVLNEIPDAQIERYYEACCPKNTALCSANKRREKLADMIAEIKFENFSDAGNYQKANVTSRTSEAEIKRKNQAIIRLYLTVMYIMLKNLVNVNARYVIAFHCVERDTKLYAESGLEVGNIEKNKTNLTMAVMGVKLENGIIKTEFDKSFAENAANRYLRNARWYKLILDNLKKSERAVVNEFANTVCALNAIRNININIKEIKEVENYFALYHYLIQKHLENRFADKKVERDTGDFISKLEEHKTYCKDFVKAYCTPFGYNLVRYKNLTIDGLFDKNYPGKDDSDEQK


Target: T1, EsCas13d, nuclease-dead
Assay: crRNA (strand 1, pre-loaded); Mg2+; 40 mM Tris-HCl pH 7.5, 150 mM NaCl, 6 mM MgCl2, 1 mM DTT, 0.1% Tween-20, 0.2 mg/ml BSA; 25 C; 10 min per concentration, then washed
Conditions: tags: His6-TwinStrep-SUMO cleaved; N-terminal SNAP kept (SNAP-Surface 488); label: 3' end held by stalled T7 RNA polymerase

| Binder | Kd [nM] |
| --- | --- |
| target 1 A16C,C21A (mixed) RNA 1: CACCCGUGCAAAAAUGCAGGGGUCUAAAACUGAGCGGAUAACCUCUCUAUGG RNA 2: GGGAAUGGAUCCACAUCUACGAAUUCGUACAAUAGCGAGGUUAUCCGCUCACCGAGAUCGGAAGAGCACACGU | 66 ± 11 |
| target 1 C6U,A16U (mixed) RNA 1: CACCCGUGCAAAAAUGCAGGGGUCUAAAACUGAGCGGAUAACCUCUCUAUGG RNA 2: GGGAAUGGAUCCACAUCUACGAAUUCGUACCAUAGUGAGGUUAUCUGCUCACCGAGAUCGGAAGAGCACACGU | 37.1 ± 2.6 |
| target 2 MT 5'PFS CAG 3'PFS CUG (mixed) RNA 1: CACCCGUGCAAAAUUGCAGGGGUCUAAAACCUUCUCCAAAUUGUUUCAUCCU RNA 2: GGGAAUGGAUCCACAUCUACGAAUUCCAGAGGAUGAAACAAUUUGGAGAAGCUGAGAUCGGAAGAGCACACGU | 7.2 ± 1.3 |
| target 2 MT 5'PFS GAU 3'PFS ACC (mixed) RNA 1: CACCCGUGCAAAAUUGCAGGGGUCUAAAACCUUCUCCAAAUUGUUUCAUCCU RNA 2: GGGAAUGGAUCCACAUCUACGAAUUCGAUAGGAUGAAACAAUUUGGAGAAGACCAGAUCGGAAGAGCACACGU | 17.7 ± 3.4 |
| target 2 MT 5'PFS GGU 3'PFS AUC (mixed) RNA 1: CACCCGUGCAAAAUUGCAGGGGUCUAAAACCUUCUCCAAAUUGUUUCAUCCU RNA 2: GGGAAUGGAUCCACAUCUACGAAUUCGGUAGGAUGAAACAAUUUGGAGAAGAUCAGAUCGGAAGAGCACACGU | 20 ± 3 |
| target 2 MT 5'PFS GUU 3'PFS UUC (mixed) RNA 1: CACCCGUGCAAAAUUGCAGGGGUCUAAAACCUUCUCCAAAUUGUUUCAUCCU RNA 2: GGGAAUGGAUCCACAUCUACGAAUUCGUUAGGAUGAAACAAUUUGGAGAAGUUCAGAUCGGAAGAGCACACGU | 31 ± 5 |
| target 2 MT 5'PFS UAC 3'PFS CCG (mixed) RNA 1: CACCCGUGCAAAAUUGCAGGGGUCUAAAACCUUCUCCAAAUUGUUUCAUCCU RNA 2: GGGAAUGGAUCCACAUCUACGAAUUCUACAGGAUGAAACAAUUUGGAGAAGCCGAGAUCGGAAGAGCACACGU | 6.1 ± 1.4 |
| target 2 MT 5'PFS GUU 3'PFS UUU (mixed) RNA 1: CACCCGUGCAAAAUUGCAGGGGUCUAAAACCUUCUCCAAAUUGUUUCAUCCU RNA 2: GGGAAUGGAUCCACAUCUACGAAUUCGUUAGGAUGAAACAAUUUGGAGAAGUUUAGAUCGGAAGAGCACACGU | 51 ± 11 |
| target 2 MT 5'PFS UAC 3'PFS AAC (mixed) RNA 1: CACCCGUGCAAAAUUGCAGGGGUCUAAAACCUUCUCCAAAUUGUUUCAUCCU RNA 2: GGGAAUGGAUCCACAUCUACGAAUUCUACAGGAUGAAACAAUUUGGAGAAGAACAGAUCGGAAGAGCACACGU | 11 ± 4 |
| target 2 MT 5'PFS GGU 3'PFS AUU (mixed) RNA 1: CACCCGUGCAAAAUUGCAGGGGUCUAAAACCUUCUCCAAAUUGUUUCAUCCU RNA 2: GGGAAUGGAUCCACAUCUACGAAUUCGGUAGGAUGAAACAAUUUGGAGAAGAUUAGAUCGGAAGAGCACACGU | 14.8 ± 1.6 |
| target 2 MT 5'PFS AUU 3'PFS UCU (mixed) RNA 1: CACCCGUGCAAAAUUGCAGGGGUCUAAAACCUUCUCCAAAUUGUUUCAUCCU RNA 2: GGGAAUGGAUCCACAUCUACGAAUUCAUUAGGAUGAAACAAUUUGGAGAAGUCUAGAUCGGAAGAGCACACGU | 10.7 ± 0.6 |
| target 2 MT 5'PFS UAC 3'PFS CCA (mixed) RNA 1: CACCCGUGCAAAAUUGCAGGGGUCUAAAACCUUCUCCAAAUUGUUUCAUCCU RNA 2: GGGAAUGGAUCCACAUCUACGAAUUCUACAGGAUGAAACAAUUUGGAGAAGCCAAGAUCGGAAGAGCACACGU | 17 ± 4 |
| target 2 MT 5'PFS CAG 3'PFS CUC (mixed) RNA 1: CACCCGUGCAAAAUUGCAGGGGUCUAAAACCUUCUCCAAAUUGUUUCAUCCU RNA 2: GGGAAUGGAUCCACAUCUACGAAUUCCAGAGGAUGAAACAAUUUGGAGAAGCUCAGAUCGGAAGAGCACACGU | 6.5 ± 1.3 |
| target 2 MT 5'PFS CCU 3'PFS UCU (mixed) RNA 1: CACCCGUGCAAAAUUGCAGGGGUCUAAAACCUUCUCCAAAUUGUUUCAUCCU RNA 2: GGGAAUGGAUCCACAUCUACGAAUUCCCUAGGAUGAAACAAUUUGGAGAAGUCUAGAUCGGAAGAGCACACGU | 2.71 ± 0.32 |
| target 2 MT 5'PFS GAU 3'PFS ACU (mixed) RNA 1: CACCCGUGCAAAAUUGCAGGGGUCUAAAACCUUCUCCAAAUUGUUUCAUCCU RNA 2: GGGAAUGGAUCCACAUCUACGAAUUCGAUAGGAUGAAACAAUUUGGAGAAGACUAGAUCGGAAGAGCACACGU | 20.1 ± 3.2 |
| target 2 MT 5'PFS CUA 3'PFS CCA (mixed) RNA 1: CACCCGUGCAAAAUUGCAGGGGUCUAAAACCUUCUCCAAAUUGUUUCAUCCU RNA 2: GGGAAUGGAUCCACAUCUACGAAUUCCUAAGGAUGAAACAAUUUGGAGAAGCCAAGAUCGGAAGAGCACACGU | 2.9 ± 1 |
| target 2 MT 5'PFS CUA 3'PFS CCU (mixed) RNA 1: CACCCGUGCAAAAUUGCAGGGGUCUAAAACCUUCUCCAAAUUGUUUCAUCCU RNA 2: GGGAAUGGAUCCACAUCUACGAAUUCCUAAGGAUGAAACAAUUUGGAGAAGCCUAGAUCGGAAGAGCACACGU | ~49 |
| target 2 MT 5'PFS UAC 3'PFS CCC (mixed) RNA 1: CACCCGUGCAAAAUUGCAGGGGUCUAAAACCUUCUCCAAAUUGUUUCAUCCU RNA 2: GGGAAUGGAUCCACAUCUACGAAUUCUACAGGAUGAAACAAUUUGGAGAAGCCCAGAUCGGAAGAGCACACGU | ~19 |
| target 2 MT 5'PFS GAU 3'PFS ACG (mixed) RNA 1: CACCCGUGCAAAAUUGCAGGGGUCUAAAACCUUCUCCAAAUUGUUUCAUCCU RNA 2: GGGAAUGGAUCCACAUCUACGAAUUCGAUAGGAUGAAACAAUUUGGAGAAGACGAGAUCGGAAGAGCACACGU | 17.2 ± 2.2 |
| target 2 MT 5'PFS GGU 3'PFS AUG (mixed) RNA 1: CACCCGUGCAAAAUUGCAGGGGUCUAAAACCUUCUCCAAAUUGUUUCAUCCU RNA 2: GGGAAUGGAUCCACAUCUACGAAUUCGGUAGGAUGAAACAAUUUGGAGAAGAUGAGAUCGGAAGAGCACACGU | 16.1 ± 1.6 |
| target 2 MT 5'PFS CAU 3'PFS CUC (mixed) RNA 1: CACCCGUGCAAAAUUGCAGGGGUCUAAAACCUUCUCCAAAUUGUUUCAUCCU RNA 2: GGGAAUGGAUCCACAUCUACGAAUUCCAUAGGAUGAAACAAUUUGGAGAAGCUCAGAUCGGAAGAGCACACGU | 6.8 ± 0.8 |
| target 2 MT 5'PFS CCU 3'PFS UCC (mixed) RNA 1: CACCCGUGCAAAAUUGCAGGGGUCUAAAACCUUCUCCAAAUUGUUUCAUCCU RNA 2: GGGAAUGGAUCCACAUCUACGAAUUCCCUAGGAUGAAACAAUUUGGAGAAGUCCAGAUCGGAAGAGCACACGU | 1.74 ± 0.18 |
| target 2 MT 5'PFS GGU 3'PFS AUA (mixed) RNA 1: CACCCGUGCAAAAUUGCAGGGGUCUAAAACCUUCUCCAAAUUGUUUCAUCCU RNA 2: GGGAAUGGAUCCACAUCUACGAAUUCGGUAGGAUGAAACAAUUUGGAGAAGAUAAGAUCGGAAGAGCACACGU | 14.8 ± 2.7 |
| target 2 MT 5'PFS GAU 3'PFS ACA (mixed) RNA 1: CACCCGUGCAAAAUUGCAGGGGUCUAAAACCUUCUCCAAAUUGUUUCAUCCU RNA 2: GGGAAUGGAUCCACAUCUACGAAUUCGAUAGGAUGAAACAAUUUGGAGAAGACAAGAUCGGAAGAGCACACGU | 10.6 ± 1.6 |
